Source: US20220390449A1, “NEW S[…] FOR THE LATENT FORM OF TOXOPLASMOSIS” (INSERM (INSTITUT NATIONAL DE LA SANTÉ ET DE LA RECHERCHE …, priority 2019, published 2022)
Entries after “also recorded” stand apart in the source; their conditions may differ.

Columns and labels:
BCLA positive sera = experiment: Epitope mapping of BCLA repeat and rBCLA (dot blot peptide assay); assay type: binding; conditions: 59 peptides of 15 aa covering res 1089-1275; human sera 1/400
From the text: Epitope mapping of BCLA repeat and rBCLA. Dot blot peptide assays were custom synthetized by JPT Peptide technologies on cellulose membranes with N-Acetyl moieties on the N-terminus. Two sets of membranes were screened: 1) covering the rBCLA region (res 1089-1275) with a total of 59 peptides, each 15 aa long with an overlap of 12 and an offset of 3; 2) covering repeat 4 (res 446-493) with a total of 18 peptides, each 15 aa long with an overlap of 12 and an offset of 3. Dot blot assays were performed as described by the manufacturer. Briefly, the membranes were first activated 5 min in 100% ethanol then washed 3 times 3 min in DPBS-tween. Blocked O.N at 4° C. in DPBS-Tween 0.5% powdered milk then washed again 3*3 min in DPBS-tween. Tested sera were diluted to 1/400 in DPBS-tween 0.1% BSA and incubated for 3 h at RT with the membrane. Following a 3*3 min DPBS-tween wash, membranes were incubated with anti-IgG peroxidase coupled Ab (Sigma A0170) diluted to 1/100 000 for 2 h at RT. […] Dot intensity was integrated using ImageJ. […]. For data analysis of independent dot blots, integrated intensities from every peptide dot [I(p)] were normalised into enrichment factors Fe(p) using the baseline integrated intensity of peptide 59[I(p=59)] which never reacts with any sera. The following can be expressed with the following equation: […]
In order to increase the reactivity score over several independent positive sera blots symbolised as (+), Fe(p) enrichment scores were summed with each other and to subtract the non-specific reactivity, the same sum was performed on the same number of negative sera peptides, symbolised as (−) and subtracted. Peptide reactivity scores can be expressed though the following equation:
Rs(p)=[Σ(Fe(p))^(+)−Σ(Fe(p))^(−)]

[1] = target: T1, His rBCLA (HisTag-rBCLA: C-terminal domain of BCLA, res 1089-1275, with a TEV cleavable N-terminal His-tag) (Toxoplasma gondii); experiment: ELISA, periplasmic extract on coated His rBCLA
T1 construct: also called Cter-BCLA; recombinant rBCLA
T1 chain: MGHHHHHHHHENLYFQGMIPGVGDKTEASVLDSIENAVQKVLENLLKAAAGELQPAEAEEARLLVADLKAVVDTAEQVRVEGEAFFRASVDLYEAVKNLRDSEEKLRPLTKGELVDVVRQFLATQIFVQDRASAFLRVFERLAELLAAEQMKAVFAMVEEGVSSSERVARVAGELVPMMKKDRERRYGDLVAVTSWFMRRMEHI

His rBCLA = experiment: ELISA binding of purified VHH to immobilized His rBCLA; parameters: species or system Toxoplasma gondii; conditions: 200 ng/well antigen, serial dilution of VHH
Experimental: The binding of purified VHH to immobilized His rBCLA was analyzed by ELISA. A MaxiSorp plate was coated with 200 ng/well antigen overnight at 4° C. in PBS. After blocking the wells with 4% MPBS, a serial dilution of the VHH was added to the coated wells and incubated for 1 hour at room temperature. After washing unbound VHH, bound VHH were detected using a mouse-anti-flag (clone M2) and donkey-anti-mouse coupled to HRP. Binding was quantified by measuring colorimetric reaction of OPD+H2O2 at 490 nm. ERB-1G6, ERB-1B11 and ERB-1A12 show a subnanomolar apparent affinity to immobilized His rBCLA. ERB-1F1 and ERB-1F2 show a low nanomolar affinity. ERB-1H4 and ERB-1D7 show a […] apparent affinity to His rBCLA.

[2] = target: T1, His rBCLA (HisTag-rBCLA: C-terminal …); experiment: phage display selection on His rBCLA and ELISA, as retold in the description
[3] = target: T1, His rBCLA (HisTag-rBCLA: C-terminal …); experiment: ELISA on coated His rBCLA (conclusion of Example 2)
[4] = target: T1, His rBCLA (HisTag-rBCLA: C-terminal …); experiment: ELISA, serial dilution of purified VHH on coated His rBCLA (200 ng/well), anti-flag detection

## EGEAFFRASVDLYEA (Synthetic peptide 22 of rBCLA)
BCLA positive sera
  peptide reactivity (total reactivity score), rBCLA region array: stronger zones of reactivity

## KLRPLTKGELVDVVR (Synthetic peptide 30 of rBCLA)
BCLA positive sera
  peptide reactivity (total reactivity score), rBCLA region array: stronger zones of reactivity

## QPAEAEEARLLVADL (Synthetic peptide 13 of rBCLA)
BCLA positive sera
  peptide reactivity (total reactivity score), rBCLA region array: stronger zones of reactivity

B1: VHH ERB-1H4 (VHH)
VHH: EVQLVESGGGLVQAGGSLRLSCVASGRTFSRYTVGWFRQAPGKEREFVAGISWSGSRTSYADSVKGRFTISRDNDKTTGYLQMNSLKPEDTAVYYCAAITKLYENNIPRSVSDYALWGQGTQVTVSS
notes: also called VH ERB-1H4; not shown: C-terminal FLAG and His-tag from vector pMEK222
[1]
  binding result: binds

B2: ERB-1H4: single domain antibody (VHH) selected on His rBCLA, SEQ ID NO: 62 (protein)
VHH: B1 VHH
modifications: Synthetic VHH ERB-1H4
His rBCLA
  apparent affinity to immobilized His rBCLA: molar

B3: VHH ERB-1F1 (VHH)
VHH: EVQLVESGGGLVQAGDSLRLSCAASGRTFSRVTMGWFRQAPGKEREFVAGISWSGTRTDYPDSVKGRFTVSRDNAKKTMWLQMSSLRPEDTAVYHCAADSTLYGSAISNNREAYAYWGQGTQVTVSS
notes: also called VH ERB-1F1; not shown: C-terminal FLAG and His-tag from vector pMEK222
[1]
  binding result: binds

B4: ERB-1F1: single domain antibody (VHH) selected on His rBCLA, SEQ ID NO: 60 (protein)
VHH: B3 VHH
modifications: Synthetic VHH ERB-1F1
His rBCLA
  apparent affinity to immobilized His rBCLA: low nanomolar

B5: VHH ERB-1B11 (VHH)
VHH: EVQLVESGGGLVQAGGSLRLTCAASGRTFRRSNMAWFRQPPGKERDFVAAIKWSGSSTNYADSVKGRFTISRDNDKNTVYLQMNVLKPEDTGVYYCAQESSLYSNYLPVVSSAYDYWGQGTQVTVSS
notes: also called VH ERB-1 B11; not shown: C-terminal FLAG and His-tag from vector pMEK222
[2]
  binding result: binds

B6: ERB-1B11: single domain antibody (VHH) selected on His rBCLA, SEQ ID NO: 58 (protein)
VHH: B5 VHH
modifications: Synthetic VHH ERB-1B11
His rBCLA
  apparent affinity to immobilized His rBCLA: subnanomolar; also recorded: very good

B7: VHH ERB-1D7 (VHH)
VHH: KVQLVESGGGLVQAGGSLRLSCAASGRTFSRRGMGWFRQAPGKEREFVATIKWSGTSTDYADSVKGRFTISRDNAKNTVYLQMNNLQPEDTAVYYCAADRQLYRDGYVPLNEYEDWGQGTQVTVSS
notes: also called VH ERB-1D7; not shown: C-terminal FLAG and His-tag from vector pMEK222
[1]
  binding result: binds

B8: ERB-1D7: single domain antibody (VHH) selected on His rBCLA, SEQ ID NO: 63 (protein)
VHH: B7 VHH
modifications: Synthetic VHH ERB-1D7
His rBCLA
  apparent affinity to immobilized His rBCLA: molar

B9: VHH ERB-1A12 (VHH)
VHH: EVQLVESGGGLVQAGGSLRLSCAASGRTFSRYFMGWFRQAPGKEREFVAGIIWSGTRTYYVDSVKGRFTISRDNDKRMVYLQMNSLKPEDTAVYYCAAYKEYYGTPAQLYAAASYDYWGQGTQVTVSS
notes: also called VH ERB-1A12; not shown: C-terminal FLAG and His-tag from vector pMEK222
[3]
  binding result: binds

B10: ERB-1A12: single domain antibody (VHH) selected on His rBCLA, SEQ ID NO: 59 (protein)
VHH: B9 VHH
modifications: Synthetic VHH ERB-1A12
His rBCLA
  apparent affinity to immobilized His rBCLA: subnanomolar; also recorded: very good

B11: VHH ERB-1G6 (VHH)
VHH: EVQLVESGGGLVQAGGSLGLSCAASGRPGRIFTRNSMAWFRQAPGKEREFVASINWSGTSTSYADSVKGRFAISRDNDKNTVYLQMNSLKPEDTAVYYCAADSALYGSMHKTPADYEYWGQGTQVTVSS
notes: also called VH ERB-1 G6; not shown: C-terminal FLAG and His-tag from vector pMEK222
[4]
  binding result: binds

B12: ERB-1G6: single domain antibody (VHH) selected on His rBCLA, SEQ ID NO: 57 (protein)
VHH: B11 VHH
modifications: Synthetic VHH ERB-1G6
His rBCLA
  apparent affinity to immobilized His rBCLA: subnanomolar; also recorded: very good

B13: VHH ERB-1F2 (VHH)
VHH: EVQLVESGGGLVQVGGSLRLSCAASGRTFRRNTIGWFRQAPGKEREFVAAISWSGTRTKYADPVKGRFTISRDNDKNTAYLQMNTLKPDDTAVYYCAADGALYGSDVSGLARVYDYWGQGTQVTVSS
notes: also called VH ERB-1F2; not shown: C-terminal FLAG and His-tag from vector pMEK222
[1]
  binding result: binds

B14: ERB-1F2: single domain antibody (VHH) selected on His rBCLA, SEQ ID NO: 61 (protein)
VHH: B13 VHH
modifications: Synthetic VHH ERB-1F2
His rBCLA
  apparent affinity to immobilized His rBCLA: low nanomolar
